Consider 13 molecules from patent US20240252641A1 (TCR2 THERAPEUTICS, published 2024).

Sequences and labels used below:
B1: 9A1 (9A1H6) (antibody, V domains shown)
VH: QVQLVQSGAEVKKPGASVKVSCKASGYSFTGYYMHWVRQAPGQGLEWMGWINPKSGGTSYAQQFQGRVTMTRDTSMSTVYMELTRLRADDTAVYYCARLYYSGWYGDYWGQGTLVTVSS
VL: DIQMTQSPSSLSASVGDRVTITCQASQDINNYLNWYQQKPGKVPNLLIYDASNLETGVPSRFSGSGSGTDFTFTISSLQPEDIATYYCQQYNNPPITFGQGTRLEIK
notes: IgG in hybridoma supernatant
B2: 4G7 (4G7E8) (antibody, V domains shown)
VH: QVQLVESGGGVVQPGRSLRLSCAASGFTFSSYGLHWVRQAPGKGLDWVAVIWYDGSNKYYVDSVKGRFTISRDNSMNTLFLQMNSLRAEDTAVYYCARDEAAAAGAFDIWGQGTMVTVSS
VL: DIQLTQSPSFLSASVGDRVTITCRASQGISSYLAWYQQKPGKAPKLLIYAASTLQSGVPSRFSGSGSGTEFTLTISSLQPEDFATYYCQQLNYYSITFGQGTRLEIK
notes: IgG in hybridoma supernatant; The variable domains exist only inside scFv entries 1213/1214
B3: 2F1 (2F1F7) (antibody, V domains shown)
VH: EVQLVESGGVVVQPGGSLRLSCAASGFTFDDYTMHWVRQAPGKGLEWVSLVSWDGGSTYYADSVKGRFTTSRDNSKKFLYLQMNRLRTEDTALYFCAIDRAYRPYYYYHMDVWGKGTTVTVSS
VL: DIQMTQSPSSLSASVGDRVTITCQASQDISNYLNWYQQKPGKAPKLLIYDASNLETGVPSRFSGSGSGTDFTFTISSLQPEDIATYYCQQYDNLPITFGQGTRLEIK
notes: IgG in hybridoma supernatant; The variable domains exist only inside scFv entries 1215/1216
B4: 15F8 (15F8D8) (antibody, V domains shown)
VH: EVQLVESGGGVVRPGGSLRLSCAASGFTFDDYGVSWVRQAPGRGLEWVSGINWNGGSTAYADSVKGRFTISRDSAKNSLYLQMDSLRAEDTALYYCAREEGSYYVWYFDIWGRGTLVTVSS
VL: DIQMTQSPSSLSASVGDRVTITCRPSQSISNYLNWYQQKPGKAPKVLIYASFILQSGVPSRFGGSGSGTDFTLTISSLQPEDFATYYCQQSYSNPFTFGPGTKVDIK
notes: IgG in hybridoma supernatant; also called 15F8D9
B5: 1E3 (1E3D9) (antibody, V domains shown)
VH: QLQLQESGPGLVKPSETLSLTCTVSGASITSTSYYWNWIRQPPGKGLEWIGRISYSGSTYYNPSLKSRVTISVDTSKNQFSLKLSSVTATDTAVYYCARQIRYNWNPDTFDIWGQGTMVTVSS
VL: EIVMTQSPATLSVSPGERATLSCRASQSLNSNLAWYQQKPAQAPRLLIYGASTRATGIPARFSGSGSGTEFTLTISSLQSEDFAVYYCQQYDNWPLTFGGGTKVEIK
notes: IgG in hybridoma supernatant
B6: R2P14A12 VHH (VHH)
VHH: QVQLQESGGGLVQPGGSLRLSCVASGFTLDRYAVGWFRQAPGKELEGVSCISSSGDIIKYADSAKGRFTIARDNAKNTAYLQMNSLKPEDTAVYYCTAADPKDDCSVPGYYGLNYWGKGTQVTVSS
notes: tested as VHH-His
B7: R3P15F6 VHH (VHH)
VHH: QVQLQESGGGLVQPGGSLRLSCVASGFTLDKYAIGWFRQAPGKELEGVSCITSSSGVVKYADSVKGRFIISRDNTNNRAFLQMSSLKPEDTAVYYCAAAGPPDDCSVPGYYGLNYWGKGTQVTVSS
B8: R3aP4D6 VHH (VHH)
VHH: QVQLQESGGGLVQAGGSLRLSCAASKSIIRDNVMAWHRQAPGKQRELVAIINTGGSANVDDSVKGRFTISRDNAKNMVYLQMNNLKPEDTAVYYCNVYYRDLWGQGTQVTVSS
B9: R3P5A1 VHH (VHH)
VHH: QVQLQESGGGLVQPGGSLRLSCTASGSIFSATRMEWYRQAPGKQRELVAIVTSGGRTNYADSVNGRFTISRDNAKNTLYLQMNNLKPEDTAVYYCKFERYDYVNYWGRGTQVTVSS
notes: tested as VHH-His
B10: R3aP9D10 VHH (VHH)
VHH: QVQLQESGGGLVQAGGSLRLSCAAPGFTFDAYAIGWFRQAPGKEREGVICLSPSDGSTYYADSVKGRFTISSDNAKNTVYLQMNSLKPEDTAVYYCATPSWCSLKADFGSWGQGTQVTVSS
notes: tested as VHH-His
B11: R3P3H12 VHH (VHH)
VHH: QVQLQESGGGLVQTGGSLRLSCTASGSIFDIVRGSWYRQAPGNQRELVAIITSGGATNYADSVAGRFTISRDSAWKALYLQMNSLKPEDTAVYFCNMESVRYRNYWGQGTQVTVSS
notes: tested as VHH-His
B12: R3P2G8 VHH (VHH)
VHH: QVQLQESGGGLVQTGGSLRLSCTASGSIFDIARGNWYRQAPGKQRELVAIITSGGATNYADSVAGRFTISRDDAKNTVYLQMNGLKPEDTAVYFCNMESLSYRHYWGQGTQVTVSS
notes: tested as VHH-His
B13: human CD70, recombinant, N-terminally biotinylated (residues 39-193) (ligand, UniProt P32970 39-193, looked up)
chain: QRFAQAQQQLPLESLGWDVAELQLNHTGPQQDPRLYWQGGPALGRSFLHGPELDKGQLRIHRDGIYMVHIQVTLAICSSTTASRHHPTTLAVGICSPASRSISLLRLSFHQGCTIASQRLTPLARGDTLCTNLTGTLLPSRNTDETFFGVQWVRP
modifications: N-terminal biotin
notes: range 39-193; the same entry is used there; also called biotinylated human CD70; CD70 biotin

The first assay has as its target T1, CD70 (UniProt P32970 39-193, limits assumed).
T1 construct: also called CD70 (100 nM)
T1 sequence (looked up): B13 chain
Kind of assay: Octet (BLI); mAb binding to CD70 with CD27 (competitor CD27).
Take B1: the “CD27:CD70 Interaction Neutralization of mAb Binding” value is 0.0553.

As to B2, the “CD27:CD70 Interaction Neutralization of mAb Binding” value amounted to 0.0429.

For B3, the “CD27:CD70 Interaction Neutralization of mAb Binding” value came to 0.0275.

Take B4: the “CD27:CD70 Interaction Neutralization of mAb Binding” value was found to be 0.0349.

For B5, the “CD27:CD70 Interaction Neutralization of mAb Binding” value was 0.102.

The target of a further assay is T2, CD70 on cells (CHO-CD70, JVM-3, U266, Raji, THP-1, T cells) (human, UniProt P32970 1-193).
T2 construct: whole, on cells; also called cell-surface CD70
T2 sequence (looked up): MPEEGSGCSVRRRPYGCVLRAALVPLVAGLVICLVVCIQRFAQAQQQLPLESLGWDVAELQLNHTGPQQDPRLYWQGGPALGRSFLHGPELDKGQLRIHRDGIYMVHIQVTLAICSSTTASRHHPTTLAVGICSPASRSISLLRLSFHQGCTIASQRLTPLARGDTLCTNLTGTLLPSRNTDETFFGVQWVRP
In words: binding to CD70-expressing CHO cells with and without CD27-Fc. The method in brief: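 Anti-CD70 antibodies and CD27-Fc were applied to CHO cells with CD70 attached to the cell surface, in four set-ups. Each was applied alone; antibody was premixed with CD27-Fc; or cells were first coated with CD27-Fc or with antibody, washed, and then given the mixture. The binding signal was then measured in each set-up.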
For the molecule B6, the binding result was “binds”.

Regarding B7, the binding result is recorded as “binds”.

In the case of B8, the binding result is “binds”.

For the molecule B9, the binding result was “binds”.

Regarding B10, the binding result is listed as “binds”.

Regarding B11, the binding result is given as “binds”.

The target in a further assay is T2, CD70 on cells (CHO-CD70, JVM-3, U266, …). Kind of assay: cell ELISA, about 500 nM VHH-His, anti-His-HRP. The method, then: A cell binding ELISA was carried out to determine whether the anti-CD70 VHHs could recognize the antigen on cells. ˜500 nM each VHH-his was diluted in blocking buffer (PBS+0.01% Tween20+2% non-fat dry milk) and added to wells containing 100,000-200,000 pre-blocked CHO-CD70 cells (high CD70 expression), JVM3 cells (medium-low CD70 expression), wild type CHO cells (negative control), HL60 cells (negative control). The plate was incubated for 1 hour at room temperature with agitation. After incubation cells were washed 3 times by spinning down and dumping of the supernatant followed by addition of PBST. Subsequently, secondary antibody was applied (anti-His-HRP) and the mixture incubated for 30 minutes. After 3 more washes TMB substrate was applied to the plates and the reaction was allowed to proceed for 1-5 minutes before 1M HCl was applied as a stop solution. Immediately following application of the stop solution the absorbance at 450 nm (OD₄₅₀) of each well was measured on a spectrophotometer.
For orientation: In an ELISA, binding on a coated surface is turned into a signal by an enzyme label.
As for B12, the binding result is given as “binds”.

In another assay the target is T3, human CD27 fused to human Fc domain (human, UniProt P26842 21-192, limits assumed).
T3 construct: bought reagent; also called CD27-Fc; CD27Fc
T3 sequence (looked up): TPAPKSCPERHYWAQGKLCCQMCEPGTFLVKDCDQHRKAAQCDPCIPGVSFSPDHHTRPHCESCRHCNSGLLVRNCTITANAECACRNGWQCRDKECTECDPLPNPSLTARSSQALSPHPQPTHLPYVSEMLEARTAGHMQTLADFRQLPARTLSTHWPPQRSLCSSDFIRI
In words: BLI, biotinylated CD70 on streptavidin sensors, 400 nM analyte. The method, then: (§1) Bio-layer interferometry was used to measure the binding affinity of CD70 to CD70-targeted antibodies 41D12, R3P3H12, R3P5A1, R3aP3E8, and R3aP9D10, and human CD27 fused to human Fc domain (CD27-Fc; Acro Biosystems cat. CD7-h5254). […] Following CD70 immobilization, biosensors were immersed in Octet Buffer to remove unbound, biotinylated CD70 and to establish a flat baseline sensor signal. CD70-loaded Biosensors were then transferred to Octet buffer containing 400 nM of CD27-Fc or αCD70 antibody and association was monitored for 5 minutes at 30° C. whilst agitating at 1,000 RPM. An scFv fragment derived from humanized llama αCD70 antibody 41D12 and fused to human Fc (41D12-Fc) served as a positive control for CD70 binding and an αLysozyme single-domain camelid antibody (clone D2-L19) was used as a negative control. CD27-Fc or αCD70 antibody dissociation was initiated by transferring sensors to Octet buffer and monitored for 5 minutes. Data were analyzed using ForteBio Data Analysis Suite 9.0. The observed association (kₒₙ) and dissociation (koff) rates for the binding of single-domain antibodies to CD70 were determined using a 1:1 curve fitting model to obtain, in all cases, R²≥0.95. Values of the equilibrium dissociation constant for binding to CD70, KD, were determined from the ratio of koff and kₒₙ.
A general note: In BLI a coated tip is dipped into the sample, and binding shifts an interference pattern.
Take B13: the binding result is recorded as “binds”.

The target in a further assay is B13. Described as above. The method, then: as §1
For the molecule B9, the binding result is recorded as “binds”.

Take B10: the binding result was “binds”.

As to B11, the binding result is “binds”.

Another assay addresses T1, CD70. Kind of assay: Octet (BLI); hybridoma mAb, CD70 at 100 nM.
A word on the Kd: it is the equilibrium constant for the complex coming apart. A lower Kd goes with tighter binding. Usually koff stands for the first-order rate constant of dissociation. The low end stands for a long-lived complex, the high end for a short-lived complex. In general, kon refers to the rate constant with which the complex forms. Molecule B1 gave a Kd of 0.00603 nM, a Response of 0.434, a koff of 5.28e-07 s⁻¹ and a kon of 87500 M⁻¹ s⁻¹.

On to B2, for which the Kd is 1.28 nM, the Response stood at 0.357, the koff was 0.000167 s⁻¹ and the kon turned out to be 130000 M⁻¹ s⁻¹.

For B3, the Kd is 6.6 nM, the Response is 0.698, the koff was determined as 0.000555 s⁻¹ and the kon is 84100 M⁻¹ s⁻¹.

B4: the Kd came out at 0.00481 nM, the Response is 0.382, the koff is 3.36e-07 s⁻¹ and the kon amounted to 69800 M⁻¹ s⁻¹.

As to B5, the affinity, expressed as Kd, was 0.255 nM; the Response was found to be 0.506; the koff came out at 3.88e-05 s⁻¹; the kon is 152000 M⁻¹ s⁻¹.
